The target of test [1] is T1, recombinant human LGR4 ectodomain-IgG-Fc fusion (R&D Systems) (human, UniProt Q9BXB1 25-540, limits assumed).
T1 construct: Bought construct; also called Human LGR4-Fc; LGR4-Fc; not shown: IgG Fc; detected with anti-human IgG Fc antibody
The experiment in a line: ELISA, plate coated with 0.5 ug/mL hLGR4-Fc, biotinylated antibody detected with streptavidin-HRP. The method, then:
(§1) Binding of the anti-LGR4 antibodies to human and murine LGR4 was assessed in vitro using an ELISA-based plate binding assay. The assay measured biotinylated antibody binding to ELISA plate-bound purified recombinant, LGR4 ectodomain-IgG-Fc fusion, with detection of LGR4-bound antibody with horseradish peroxidase-conjugated streptavidin. […] Binding data from two of the antibodies, 8F3 and 1C5 are shown in FIGS. 5A and 5B, respectively.
A general note: ELISA stands for enzyme-linked immunosorbent assay.

Test [2] has as its target T2, recombinant mouse LGR4 ectodomain-IgG-Fc fusion (R&D Systems) (mouse, UniProt A2ARI4 25-540, limits assumed).
T2 construct: extracellular domain; Bought construct; also called mouse LGR4-Fc; murine LGR4; not shown: IgG Fc
The experiment in a line: ELISA, plate coated with 0.5 ug/mL mLGR4-Fc, biotinylated antibody detected with streptavidin-HRP. As to the method: as §1

Test [3] concerns the target T1, recombinant human LGR4 …. The test is described as follows: BLI (Octet QK), biotinylated antibody on streptavidin tips, LGR4-Fc in solution; exponent as printed (E+04), KD fits E-04. The method, then: (§2) Binding kinetics of LGR4 antibodies to human and mouse LGR4 were determined using label-free plate-based Octet QK instrument (Pall ForteBio, LLC, Menlo Park, Calif.) at 30 degrees. Biotinylated 1C5 and 8F3 LGR4 antibodies were diluted to 5 μg/mL in 1×PBS and immobilized on streptavidin tips (Pall ForteBio, LLC, Menlo Park, Calif.). Plate shaking speed was 1000 rpm. The antibodies were captured on the tips for 150 sec. To establish a baseline, the tips were transferred into wells containing binding buffer (1×PBS, supplemented with 0.1% bovine serum albumin and 0.05% Tween 20) for 60 sec. Human LGR4-Fc (R&D Systems) and mouse LGR4-Fc (R&D Systems) were diluted in binding buffer to 80 nM, 40 nM, 20 nM, 10 nM, 5 nM to make a concentration series. Additionally, a buffer-only well was used as reference. 1C5 and 8F3-coated tips were transferred into wells containing human LGR4 and mouse LGR4 dilution series for 180 sec to measure receptor association. The tips were then dipped into binding buffer for 300 sec to measure receptor dissociation.
(§3) Data were collected using ForteBio Data Acquisition software v7.1 and analyzed using ForteBio Data Analysis software v7.1. Data were referenced by subtracting signal from the buffer sample, and fitted to a 1:1 binding model using global fitting with unlinked Rmax. The experiment was repeated three times. […]
A general note: BLI is a label-free optical method that tracks binding on a fibre tip over time.

For test [4], the target named is T3, human LGR4 on the cell surface (recombinant on CHO cells; endogenous on HEK-293T cells) (human, UniProt Q9BXB1 25-951).
T3 construct: also called CHO-LGR4; GPR48
The experiment in a line: flow cytometry on CHO-LGR4 cells, PE anti-rat IgG secondary. The method, then:
(§4) A flow cytometry-based assay was used to measure the binding of purified anti-LGR4 antibodies 1C5 and 8F3 to recombinant human LGR4 protein overexpressed on the surface of CHO cells. CHO and CHO-LGR4 cells were stained with serial dilutions of anti-LGR4 antibodies at 4° C. Surface staining was detected with PE-conjugated anti-rat IgG secondary antibodies and analyzed on the FACSCalibur (FIG. 4A and FIG. 4B). […] An antibody control (pooled rat IgG) was used as a negative isotype control in these experiments as well as wild-type CHO without LGR4.
A general note: A flow cytometer gives signals particle by particle.

For test [5], the target named is T2, recombinant mouse LGR4 …. The test is described as follows: BLI (Octet QK), biotinylated antibody on streptavidin tips, LGR4-Fc in solution, 1:1 global fit. As to the method: as §2
(§5) Data were collected using ForteBio Data Acquisition software v7.1 and analyzed using ForteBio Data Analysis software v7.1. Data were referenced by subtracting signal from the buffer sample, and fitted to a 1:1 binding model using global fitting with unlinked Rmax. The experiment was repeated three times. Sample curve fits, kinetic rate constants, and KD for 1C5 and 8F3 LGR4 antibodies are shown below in Table 5.

The target of test [6] is T1, recombinant human LGR4 …. The description is as above. As to the method:
as §2, §5

For test [7], the target named is T2, recombinant mouse LGR4 …. The test is described as follows: BLI (Octet QK), biotinylated antibody on streptavidin tips, LGR4-Fc 5-80 nM in solution, 1:1 global fit, 30 degrees. The method, then: as §2, §5
In test [8] the target is T1, recombinant human LGR4 …. The test is described as above. As to the method: as §2, §5
The target of test [9] is T3, human LGR4 on the cell surface …. The test is described as follows: flow cytometry on CHO-LGR4 cells, PE anti-rat IgG secondary [printed FIB. 4B]. As to the method:
as §4

The target of test [10] is T1, recombinant human LGR4 …. The test is described as follows: BLI (Octet QK); receptor printed 'Human LGR4' a second time for 8F3, possibly mouse LGR4. The method, then:
as §2, §3

Test [11] deals with T1, recombinant human LGR4 …. The test is described as follows: BLI (Octet QK), biotinylated antibody on streptavidin tips, LGR4-Fc in solution; receptor printed 'Human LGR4' a second time for 8F3, possibly mouse LGR4. The method, then: as §2, §3
In test [12] the target is T1, recombinant human LGR4 …. The experiment in a line: ELISA, plate coated with 2 or 1 ug/mL hLGR4-Fc, detected with HRP anti-human IgG-CH1. As to the method: (§6) Binding of the humanized anti-LGR4 antibodies 1C5HE and 1C5HG to human and LGR4 was assessed in vitro using an ELISA-based plate binding assay. The assay measured antibody binding to ELISA plate-bound purified recombinant LGR4 ectodomain-IgG-Fc fusion (R&D Systems), with detection of LGR4-bound antibody with horseradish peroxidase-conjugated anti-human IgG-CH1 secondary antibody.

Test [13] has as its target T1, recombinant human LGR4 …. The test is described as follows: ELISA, plate coated with 2 ug/mL hLGR4-Fc, detected with HRP anti-human IgG-CH1. The method, then:
as §6

The values below come from patent US20160046723A1 (BIONOMICS, published 2016).

In general, EC50 (read off the curve) refers to the concentration at which the effect is half-maximal. What is called koff is the rate constant with which the complex falls apart. As usually defined, the Kd is the concentration at which binding is half-saturated. A word on the kon: it is the second-order rate constant of association.

B1: anti-LGR4 rat monoclonal antibody 1C5 (antibody, V domains shown)
VH: QVQLQQSGAELVKPGSSVKISCKASGYTFTSNFMHWIKQQPGNGPEWIGWIYPGDGDTEYNQKFNGKATLIADKSSTTAYMQLRSLTSEDSAVYFCARGNSGYNWFAYWGQGTLVTVSS
VL: DIQMTQSPPVLSASVGDRVTLSCKASQNINKNLDWYQQKHGEAPRLLIYYTNNLQTGIPSRFSGSGSGTDYTLTISSLQPEDVATYFCYQYKSGNTFGAGTKLELK
notes: Rat monoclonal antibody purified from hybridoma supernatant; also called 1C5 mAb; biotinylated 1C5
Turning to B1, the “EC50 (read off the curve)” value in [1] is about 0.1 nM; in [2], about 0.1 nM; in test [4], about 0.2 nM. Further, the koff in [3] came out at 0.000635 s⁻¹. For the same molecule, the figures for the Kd in test [5] and in test [6] were 1.31 nM and 1.47 nM, respectively. Also, the kon in test [7] stood at 339000 M⁻¹ s⁻¹; in [8] it was 438000 M⁻¹ s⁻¹.

B2: anti-LGR4 rat monoclonal antibody 8F3 (antibody, V domains shown)
VH: QVQLQQSGAELVKPGSSVKISCKASGYTFTSYFIHWIKQQPGNGLEWIGWIYPGDGDTEYNQKFNGKATFIADKSSSTADMQLNSLTSEDSAVYFCARSKSAYNWFAYWGQGTLVTVSS
VL: DIQMTQSPPVLSASVGDRVTLSCKASQNINKNLDWYHQKHGEAPKLLIYYTNNLQTGIPSRFSGSGSGTDYTLIISSLQPEDVATYYCYQYNSGPTFGTGTKLELK
notes: Rat monoclonal antibody purified from hybridoma supernatant; also called 8F3 mAb; biotinylated 8F3
As to B2, the “EC50 (read off the curve)” value in [1] is about 0.1 nM; in test [2], about 0.08 nM; in test [9] it was about 0.2 nM. In addition, the Kd in test [6] and in test [10] was 0.47 nM in each case. For the same molecule, the kon in test [8] turned out to be 397000 M⁻¹ s⁻¹; in test [11], 357000 M⁻¹ s⁻¹.

B3: humanized anti-LGR4 antibody 1C5HG (antibody, human IgG1, V domains shown)
VH: EVQLVQSGAEVKKPGESLKISCKGSGYTFTSNFMHWVRQMPGKGLEWIGWIYPGDGDTEYNQKFNGKVTISADKSISTAYLQWSSLKASDTAMYYCARGNSGYNWFAYWGQGTTVTVSS
VL: EIVMTQSPATLSVSPGERATLSCKASQNINKNLDWYQQKPGQAPRLLIYYTNNLQTGIPARFSGSGSGTEFTLTISSLQSEDFAVYYCYQYKSGNTFGQGTKLEIK
notes: VH fused to the human IgG1 constant region, VL fused to the human kappa constant region; recombinant IgG from HEK 293 cells
For B3, the binding result in test [12] was “binds”.

B4: humanized anti-LGR4 antibody 1C5HE (antibody, human IgG1, V domains shown)
VH: QVQLVQSGAEVKKPGASVKVSCKASGYTFTSNFMHWVRQAPGQGLEWIGWIYPGDGDTEYNQKFNGKVTMTRDTSTSTVYMELSSLRSEDTAVYYCARGNSGYNWFAYWGQGTTVTVSS
VL: EIVMTQSPATLSVSPGERATLSCKASQNINKNLDWYQQKPGQAPRLLIYYTNNLQTGIPARFSGSGSGTEFTLTISSLQSEDFAVYYCYQYKSGNTFGQGTKLEIK
notes: as for B3
For B4, the half-maximal effective concentration (EC50 (read off the curve)) in [13] was about 2 nM.
